{
  "source": "paper PMC6325607",
  "key": {"Cys149 (position 149, …)": {"molecular_target": "Cys149 (position 149, …)", "test": "chemical modification", "settings": "25 °C; not stated (10 mM buffers); 10 mM sodium acetate (pH 4-5), 10 mM MES (pH 5.5-6.5), 10 mM Tris/HCl (pH 7-9); Native reduced enzyme at 2.8 uM, with no substrate or NAD+ added. Cofactor occupancy is not stated."}, "[1]": {"molecular_target": "Cys149 (UniProt position 150, …)", "settings": "cited from earlier work"}, "Cys149": {"molecular_target": "Cys149", "settings": "cited from earlier work"}},
  "data": [
    {"protein": "Glyceraldehyde-3-phosphate dehydrogenase GapA (CbGAPDH) (Citrobacter sp. S-77) (protein) TIKVGINGFGRIGRIVFRAAQERSDIEIVAINDLLDADYMAYMLKYDSTHGRFNGSVEVKDGHLIVNGKKIRVTAERDPANLKWDEVGVDVVAEATGLFLTDETARKHITAGAKKVVLTGPSKDNTPMFVKGANFDKYEGQDIVSNASCTTNCLAPLAKVINDNFGIIEGLMTTVHATTATQKTVDGPSHKDWRGGRGAAQNIIPSSTGAAKAVGKVLPELNGKLTGMAFRVPTPNVSVVDLTVRLEKAASYEEIKKAIKAASEGPMKGVLGYTEDDVVSTDFNGEVCTSVFDAKAGIALNDNFVKLVSWYDNETGYSNKVLDLIAHISK", "values": [
      {"measurement": "pKa", "setting": "Cys149 (position 149, …)", "value": "5.82 ± 0.05"}
    ]},
    {"protein": "Glyceraldehyde-3-phosphate dehydrogenase A (GAPDH) (Escherichia coli) (protein) TIKVGINGFGRIGRIVFRAAQKRSDIEIVAINDLLDADYMAYMLKYDSTHGRFDGTVEVKDGHLIVNGKKIRVTAERDPANLKWDEVGVDVVAEATGLFLTDETARKHITAGAKKVVMTGPSKDNTPMFVKGANFDKYAGQDIVSNASCTTNCLAPLAKVINDNFGIIEGLMTTVHATTATQKTVDGPSHKDWRGGRGASQNIIPSSTGAAKAVGKVLPELNGKLTGMAFRVPTPNVSVVDLTVRLEKAATYEQIKAAVKAAAEGEMKGVLGYTEDDVVSTDFNGEVCTSVFDAKAGIALNDNFVKLVSWYDNETGYSNKVLDLIAHISK", "values": [
      {"measurement": "pKa", "setting": "[1]", "value": 5.70}
    ]},
    {"protein": "Glyceraldehyde-3-phosphate dehydrogenase (GAPDH) (Geobacillus stearothermophilus (Bacillus stearothermophilus)) (protein) AVKVGINGFGRIGRNVFRAALKNPDIEVVAVNDLTDANTLAHLLKYDSVHGRLDAEVSVNGNNLVVNGKEIIVKAERDPENLAWGEIGVDIVVESTGRFTKREDAAKHLEAGAKKVIISAPAKNEDITIVMGVNQDKYDPKAHHVISNASCTTNCLAPFAKVLHEQFGIVRGMMTTVHSYTNDQRILDLPHKDLRRARAAAESIIPTTTGAAKAVALVLPELKGKLNGMAMRVPTPNVSVVDLVAELEKEVTVEEVNAALKAAAEGELKGILAYSEEPLVSRDYNGSTVSSTIDALSTMVIDGKMVKVVSWYDNETGYSHRVVDLAAYIASKGL", "values": [
      {"measurement": "pKa", "setting": "Cys149", "value": 5.92}
    ]}
  ]
}
